Source: publication PMC8948829, “The Escherichia coli Amino Acid Uptake Protein CycA: Regulation of Its Synthesis and Practical Application in L-Isoleucine Production” (Microorganisms, 2022)

Target: T1, Crp (CRP, cAMP receptor protein) (Escherichia coli (purified from strain SA500/pHA5)) (UniProt P0ACJ8)
T1 sequence: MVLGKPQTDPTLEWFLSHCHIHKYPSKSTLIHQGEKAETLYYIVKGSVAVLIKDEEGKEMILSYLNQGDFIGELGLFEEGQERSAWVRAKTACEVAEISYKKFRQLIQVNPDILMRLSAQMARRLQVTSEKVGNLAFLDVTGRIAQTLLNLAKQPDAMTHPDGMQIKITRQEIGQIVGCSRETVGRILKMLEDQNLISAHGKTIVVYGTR
Experiment: EMSA
Settings: 10 mM Tris-HCl pH 7.5, 1 mM EDTA, 100 mM KCl, 1 mM DTT, BSA (printed 10 g/mL), 5% glycerol, 20 uM cAMP, room temperature 30 min; 6% native PAGE, 1x TAE, 4 C

Row | Sequence | binding
1 | CGTTCAGCACCCTGGTGTTTGAAGTCGAACTGCTGGAAATCCTCTAAGCAGCGCATTCTGTTCCCCTCGAACGAGAGGGGAGCAGGCATTCAGCAATAAACCCTTCAGTTTGCCAAACGGCGCTATTTTGTGTTGCAAAGACCCCGTA (double strand) [PcycA fragment 3 (148 bp, no predicted Crp site)] | no binding
2 | TGTTTAAAGTGAGTGTCATATCACGGTGATAACGCGAAACAGCTCACAAAAATACACGCTTACGGGGTCTTTGCAACACAAAATAGCGCCGTTTGGCAAACTGAAGGGTTTATTGCTGAATGCCTGCTCCCCTCTCGTTCGAGGGGAACAGAATGCGCTGCTTAGAGGATTTCCAGCAGTTCGACTTCAAACACCAGGGTGCTGAACG (double strand) [PcycA fragment 1 (208 bp)] | binds
